Test results reported in article PMC11720163, “Position-Dependent Effects of AP Sites Within an hTERT Promoter G-Quadruplex Scaffold on Quadruplex Stability and Repair Activity of the APE1 Enzyme”.

B1: 96-G4 (structured_DNA)
DNA: GCCGCGGAAAGGAAGGGGAGGGGCTGGGAGGGCCCGGAGGGGGCTGGGCCGGGGACCCGGGAGGGGTCGGGACGGGGCGGGGTCCGCGCGGAGGAG

Key:
[1] = molecular target: APE1 (human AP endonuclease 1), His-tagged (Homo sapiens) (UniProt P27695); assay: BLI; details: 1 mM Ca2+, N = F, BLI: 20 mM Tris-HCl pH 7.5, 100 mM KCl, 1 mM CaCl2, DNA 10-100 nM, temperature not stated, DNA annealed with at least 20 mM KCl
[2] = molecular target: APE1 (human AP endonuclease 1), His-tagged (Homo sapiens, UniProt P27695 1-318); assay: BLI; 1 mM Ca2+; BLI: 20 mM Tris-HCl pH 7.5, 100 mM KCl, 1 mM CaCl2; DNA 10-100 nM; temperature not stated; DNA annealed with at least 20 mM KCl; details: protein: recombinant; label: 3'-TAMRA; three stacked intramolecular parallel G4s
Sequence of APE1 (human AP endonuclease 1), His-tagged (P27695 whole entry): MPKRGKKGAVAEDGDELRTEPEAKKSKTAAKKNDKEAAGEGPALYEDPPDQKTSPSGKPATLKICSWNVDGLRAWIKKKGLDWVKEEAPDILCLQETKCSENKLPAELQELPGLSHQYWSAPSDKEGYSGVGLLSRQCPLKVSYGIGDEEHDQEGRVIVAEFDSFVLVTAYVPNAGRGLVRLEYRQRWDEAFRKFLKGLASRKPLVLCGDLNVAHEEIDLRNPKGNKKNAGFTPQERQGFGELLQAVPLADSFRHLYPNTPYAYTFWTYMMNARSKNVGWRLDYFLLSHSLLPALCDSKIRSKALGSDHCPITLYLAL

Sequence of APE1 (human AP endonuclease 1), His-tagged (Homo sapiens) (P27695 whole entry): as above

| Molecule | Kd ([1]; stable AP site analog) | also measured |
| --- | --- | --- |
| ACCTGGATGCCTATAGGGCGAATTGGGTACCGCTGAATTGCACTGGACTNGATCCTCGATGATCCTAAGCTAAGCTTCAGCTCCAGCCTAAGCCTG [96-RF] |  | Kd fold-increase relative to G4 substrates (fold higher Kd than G4 substrates) ([1]; stable AP site analog): 10 |
| GCCGCGGAAAGGAAGGGGAGGGGCTGGGAGGGCCCGGAGGGGGCTGGGCCGGGGACCCGGNAGGGGTCGGGACGGGGCGGGGTCCGCGCGGAGGAG [96-G250F] | 3 nM |  |
| GCCGCGGAAAGGAAGGGGAGGGGCTGGGAGGGCCCGGAGGGGGCTGGGCCGGNGACCCGGGAGGGGTCGGGACGGGGCGGGGTCCGCGCGGAGGAG [96-G243F] | 3 nM |  |
| GCCGCGGAAAGGAAGGGGAGGGGCTGGGAGGGCCCGGAGGGGGCTGGGCCGNGGACCCGGGAGGGGTCGGGACGGGGCGGGGTCCGCGCGGAGGAG [96-G242F] | 3 nM |  |
| GCCGCGGAAAGGAAGGGGAGGGGCTGGGAGGGCCCGGAGGGGGCTGGGCCGNNGACCCGGGAGGGGTCGGGACGGGGCGGGGTCCGCGCGGAGGAG [96-G242,243F] |  | Kd ([1]; stable AP site analog (two)): 3 nM |
| GCCGCGGAAAGGAAGGGGAGGGGCTGGGAGGGCCCGGANGGGGCTGGGCCGGGGACCCGGGAGGGGTCGGGACGGGGCGGGGTCCGCGCGGAGGAG [96-G228F] | 3 nM |  |
| B1 |  | Kd [2]: 4.2 ± 1.4 nM |
